According to patent publication US20230151079A1 (FUNDA O BUTANTAN, published 2023):

Key:
thrombin [1] = target: T1, thrombin (Homo sapiens (Human), UniProt P00734 315-363; P00734 364-622); assay: cell-based or functional assay
thrombin [2] = target: T1, thrombin; assay: calculated from kon and koff (equation 7)
thrombin [3] = target: T1, thrombin; assay: enzyme kinetics, S-2238 hydrolysis by thrombin; Morrison tight binding equation
thrombin [4] = target: T1, thrombin; assay: enzyme kinetics, S-2238 hydrolysis by thrombin; nonlinear regression for competing enzyme inhibition
thrombin [5] = target: T1, thrombin; assay: progress curves of S-2238 hydrolysis by thrombin; kobs plotted against recombinant protein concentration
thrombin [6] = target: T1, thrombin; assay: enzyme kinetics, S-2238 hydrolysis by thrombin 0.1 nM; apparent Km from Lineweaver-Burk plots against inhibitor concentration; competing inhibition

| Binder | thrombin inhibition activity retained, relative to non-hydrolyzed recombinant protein (S-2238 hydrolysis, thrombin 0.1 nM, fragment 100 pM) (thrombin [1]) | Ki (thrombin [2]) [nM] | Ki (thrombin [3]) [nM] | Ki (thrombin [4]) [nM] | IC50 of thrombin inhibition (hydrolysis of S-2238 by thrombin 0.1 nM) (thrombin [1]) [nM] | koff (thrombin [5]) [s⁻¹] | kon (thrombin [5]) [M⁻¹ s⁻¹] | Ki (thrombin [6]) [nM] |
| --- | --- | --- | --- | --- | --- | --- | --- | --- |
| GKPQGHPHDALEARSDAVHTAVPKMPKGGHGGFEPIPIDYDERALEAR [Recombinant protein fragment of HPLC peak H1 generated by factor Xa (SEQ ID NO: 10)] | ~50 % of preserved recombinant protein | – | – | – | – | – | – | – |
| Recombinant protein (SEQ ID NO: 1), modified from sculptin of the tick Amblyomma cajennense (other, Expressed in E. coli BL21(DE3) from pET28a, without signal peptide and with a C-terminal polyhistidine tail; Mass 16990.90 Da by MALDI-TOF; also called Scpt; preserved recombinant protein) GKPQGHPHDALEARSDAVHTAVPKMPKGGHGGFEPIPIDYDERALEARSDAVHTAVPKMPKGGLGGFEPIPIDYDERALEARSDAVHTAVPKMPKGGHGGFEPIPIDYDERALEARSDAVHTAVPKMPKGGHGGFEPIPIDYDERALHALEHHHHHH | – | 0.0161 | 0.0195 | 0.0181 | 0.0866 | 0.00065 | 4.04e+07 | 0.0185 |
